One may read the Kd as the free concentration of one partner at which half of the binding sites on the other are occupied at equilibrium, for simple one-to-one binding. Lower therefore signals tighter binding.

For the assay, the target named is concanavalin A. In words: SPR. For orientation: In SPR one partner is held on a chip, and binding of the other changes the refractive index at the surface.

With “Man3GlcNAc2-RNase (glycoprotein 3) (from UniProt P61823 27-150) (natural protein)”, the Kd was 2.5 µM.

For “bovine ribonuclease B (native, carrying Man5-9 N-glycans) (from UniProt P61823 27-150) (natural protein)”, the Kd is 1.2 µM.

The substance “monofluoro-Man3GlcNAc2 glycoform of RNase (glycoprotein 2) (from UniProt P61823 27-150) (natural protein)” came in with a Kd of 2.4 µM.

The values above are taken from publication PMC3722283.
